# Where two headings read alike, the source gives them in different places.
# T1: ARVCF (Homo sapiens, UniProt O00192)
# T1 construct: host or cells: mammalian cell lysate
# T1 sequence (O00192 1-962): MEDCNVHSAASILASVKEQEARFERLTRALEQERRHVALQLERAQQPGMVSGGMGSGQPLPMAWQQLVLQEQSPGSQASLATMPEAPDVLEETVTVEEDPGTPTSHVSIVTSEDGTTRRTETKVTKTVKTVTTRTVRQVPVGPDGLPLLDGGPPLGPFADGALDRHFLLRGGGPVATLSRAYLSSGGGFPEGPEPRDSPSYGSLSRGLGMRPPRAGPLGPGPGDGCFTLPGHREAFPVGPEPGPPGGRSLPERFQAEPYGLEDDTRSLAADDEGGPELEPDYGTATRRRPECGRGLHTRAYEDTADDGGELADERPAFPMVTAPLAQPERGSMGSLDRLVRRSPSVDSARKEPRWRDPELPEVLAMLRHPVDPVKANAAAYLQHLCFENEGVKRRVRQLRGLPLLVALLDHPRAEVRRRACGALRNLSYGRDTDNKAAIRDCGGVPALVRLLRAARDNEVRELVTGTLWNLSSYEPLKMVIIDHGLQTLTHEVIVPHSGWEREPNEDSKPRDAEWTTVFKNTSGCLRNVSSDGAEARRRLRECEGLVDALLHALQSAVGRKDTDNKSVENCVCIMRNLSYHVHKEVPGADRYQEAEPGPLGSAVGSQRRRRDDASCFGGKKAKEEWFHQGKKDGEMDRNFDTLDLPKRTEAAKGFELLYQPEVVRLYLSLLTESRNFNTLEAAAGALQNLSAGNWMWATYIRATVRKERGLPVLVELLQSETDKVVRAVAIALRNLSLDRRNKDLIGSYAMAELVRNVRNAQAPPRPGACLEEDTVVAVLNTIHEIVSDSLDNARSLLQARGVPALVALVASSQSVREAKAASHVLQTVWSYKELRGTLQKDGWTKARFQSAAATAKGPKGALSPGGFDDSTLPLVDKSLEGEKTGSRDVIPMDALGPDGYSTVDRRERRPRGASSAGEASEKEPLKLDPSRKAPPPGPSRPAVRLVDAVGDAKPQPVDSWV
# What was measured:
# Pin1 WW domain = Pin1 WW domain (Homo sapiens, UniProt Q13526); details: For eWW (Pin1 WW); read-out: Affinity if known; cited from earlier work
# Sequence of Pin1 WW domain (Q13526 5-39 limits assumed): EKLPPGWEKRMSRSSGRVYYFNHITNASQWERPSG
# [1] = target: T2, ARVCF peptide (PQPVDSWV-COOH) (Homo sapiens, UniProt O00192); test: Surface plasmon resonance (SPR, BIAcore) analysis of motif binding, ARVCF peptide; details: for koff / kon: for the ARVCF peptide; for Affinity Enhancement: ratio of Kd of parent protein (cpPDZFN) for ARVCF to that of the affinity clamp
# T2 construct: made in house; host or cells: E. coli
# Source text: (§1) Using semi-automated methods, the phage display library was sorted using an eight-residue motif (SEQ ID NO: 148) corresponding to the ARVCF C-terminus. […] The maximal motif/affinity concentrations are indicated. In B, C and F, the on and off rates are also shown on the left and right sides, respectively. […] After four rounds of sorting, two clones with high affinity were identified to the ARVCF peptide motif. ePDZ-a (SEQ ID NO: 149) and ePDZ-b (SEQ ID NO: 150) are thus (referred to as “enhanced PDZ-a” and “enhanced PDZ-b” or simply “ePDZ-a” and “ePDZ-b” respectively) potential affinity clamp candidates.
# These two clones were characterized as soluble proteins.
# One method to improve affinity of the affinity clamp is to improve the interaction interface of the enhancer domain (e.g. the FN3 domain). […] The two second-generation variants, ePDZ-b1 (SEQ ID NO: 151) and ePDZ-b2 (SEQ ID NO: 143), were prepared as protein samples and their binding properties were analyzed using SPR. […] The affinity enhancement primarily originated from reduced dissociation rates.
# A disulfide-constrained peptide was used as an enhancer domain. A peptide-PDZ affinity clamp was designed in which the diversified peptide segment was N-terminal connected to the circularly permutated PDZ domain (cpPDZ) described above. (See, FIG. F1 showing an affinity clamp constructed with Cys-constrained peptide as an enhancer domain in which (A) is a schematic drawing of the affinity clamp. Note that the peptide is attached to the N-terminus of the interaction domain. (B, C) are saturation curves of the parent PDZ (B) and peptide-PDZ Affinity Clamp (C) determined using surface plasmon resonance (SPR). SPR experiments were performed in the equilibrium mode, and the SPR response is plotted as a function of the concentration of the target peptide. The target peptide fused to the yeast SUMO protein was used in these measurements. The curves show the best fit of the 1:1 binding model to the data. The Kd values are also shown.)
# ARVCF = target: T1, ARVCF; test: Western blotting of ARVCF in mammalian cell lysate; assay type: binding; details: vs commercial monoclonal antibody
# [2] = target: T3, δ-catenin peptide (PASPDSWV-COOH) (Homo sapiens, UniProt Q9UQB3); test: Surface plasmon resonance (SPR, BIAcore) analysis of motif binding, δ-catenin peptide; details: for Kd: SPR; for Specificity Index: ratio of Kd for δ-catenin to Kd for ARVCF
# T3 construct: yeast SUMO (N); made in house
# Source text: as §1
# The binding specificity of the ePDZ clones was investigated. In addition to the ARVCF motif, wild-type erbin PDZ also binds to the C-terminus of δ-catenin with a low μM Kd. The two sequences differ only at positions outside the core recognition motif, DSWV (SEQ ID NO: 69) —COOH (Table 2). The affinity enhancement of ePDZ-a was similar for both targets. Remarkably, the ePDZ-b clone had very weak binding to δ-catenin, similar to the wild-type PDZ domain, showing that ePDZ-b discriminates between the two targets by ˜200 fold. Equally importantly, ePDZ-b discriminates amino acids outside the DSWV-COOH motif shared by the two peptides (Table 2), and thus, it expanded the size of the target motif. The improved specificity is consistent with the molecular affinity clamp design where the enhancer domain binds to the motif surface presented on the PDZ domain and thus can “read” the motif sequence (FIG. C2).
# [3] = system: ARVCF target peptide (SUMO fusion) in E. coli lysate; test: Pull-down (immunoprecipitation) with biotinylated ePDZ's and streptavidin magnetic beads; assay type: binding; details: biotinylated clamp, streptavidin magnetic beads, E. coli lysate/cell extracts
# Source text: (§2) The PDZ-FN3 affinity clamps functioned well in Western blotting and in immunoprecipitation (pull down) assays. […] Lane 6 is a negative control for the secondary, anti-FLAG antibody. In FIG. C6B, pull-down (immunoprecipitation), biotinylated ePDZ's and streptavidin (SA)-magnetic beads were used. The input (I), unbound (U), wash (W) and bound (B) fractions were separated with SDS-PAGE and detected with CBB. Note that this is not Western blotting, which would have given higher sensitivity and specificity. […] Note that most of nonspecific binding is due to the SA-magnetic beads (lane 13). […] It is noted that the relatively low recovery of the target in the pull-down assays may be due to the fact that the off-rate was optimized for these clamps (FIG. C3).
# These Kd values and dissociation rates compare favorably to those for monoclonal antibodies. The reduced dissociation rate of an affinity clamp improves its usefulness in immunochemical applications.
# [4] = system: SUMO-ARVCF fusion protein; test: Western blotting of SUMO-ARVCF fusion protein in E. coli lysate; assay type: binding; details: E. coli lysate containing 5 nanograms SUMO-ARVCF
# Source text: as §2
# [5] = target: T4, Ala-substituted ARVCF peptide (positions −7 to −4) (Homo sapiens, UniProt O00192, V958A); test: Alanine-scanning of the ARVCF peptide by SPR; assay type: binding; details: ARVCF peptide mutant
# T4 construct: The tested positions are −7 to −4 in the ARVCF peptide (PQPVDSWV-COOH; mutated positions are underlined); yeast SUMO (N)
# Method: (§3) To complement the library sorting experiments described above, Ala-scanning experiments of the ARVCF peptide were performed. When the goal is to define differences in the ability of ePDZ-a and ePDZ-b1 to recognize the differences between the ARVCF and δ-catenin peptides, only those positions that differ between the two peptides are analyzed.
# (§4) Consistent with the peptide library sorting results, the ePDZ-b family was sensitive to Ala substitution mutations at all positions between −4 and −7. […] The results are shown in terms of changes in free energy change (ΔG=−RT ln(Kd^mutant/Kd^wild type)). […] The tested positions are −7 to −4 in the ARVCF peptide (PQPVDSWV-COOH; mutated positions are underlined). For each mutant, binding affinity was determined using surface plasmon resonance as described previously for the wild-type ARVCF peptide (69).
# Grb2-SH2 domain = target: T5, Grb2-SH2 domain (Homo sapiens, UniProt P62993); details: For eSH2 (Grb2); read-out: Affinity if known; cited from earlier work
# T5 construct: The SH2 domain of Grb2 (“Grb2-SH2” hereafter) is ˜98 residue autonomously folded domain
# T5 sequence (P62993 60-152 limits assumed): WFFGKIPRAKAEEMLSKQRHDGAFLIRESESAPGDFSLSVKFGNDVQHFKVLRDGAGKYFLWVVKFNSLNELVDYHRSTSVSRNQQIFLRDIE
# ARVCF peptide = target: T6, ARVCF peptide (Homo sapiens, UniProt O00192); test: IC50 for the ARVCF peptide (Table 4); assay type: binding
# T6 construct: made in house; host or cells: E. coli
# [6] = system: Ala-substituted ARVCF peptide (positions −7 to −4); test: Alanine-scanning of the ARVCF peptide by SPR; assay type: binding; details: positions −7 to −4
# Method: as §3, §4
# [7] = Table 4, SPR, read-out: Kd [nM] ARVCF
# [8] = Table 4, read-out: Kd [nM] δ-catenin
# [9] = Table 2, SPR, read-out: Kd, ARVCF PQPVDSWV
# [10] = Table 2, read-out: Kd, δ-catenin PASPDSWV
molecule,measurement,setting,value
PPApTPP [Myt1-T412],Kd,Pin1 WW domain,15000 nM
"ePDZ-b2: second-generation affinity-matured variant of ePDZ-b, SEQ ID NO: 143 (SYYGVS)",Kd,[1]; [7],4 nM
same,koff,[1]; SPR,<2.9 × 10^−4 S^−1
same,kon,[1]; SPR,7.0 × 10^4 M^−1S^−1
same,Affinity Enhancement,[1],6200
same,performance in Western blotting,ARVCF,superior to that of a commercially available monoclonal antibody
same,Kd,[2]; [8],> 10000 nM
same,Specificity Index,[2],>2500
same,capture of target in pull-down (immunoprecipitation),[3],captured a target peptide from E. coli lysate in a highly specific and quantitative manner
wt-PDZ: wild-type PDZ domain of Erbin (SEQ ID NO: 146) (YYDSHVS) [reference compound],dissociation rate (in words),[1]; SPR,too fast to measure
same,Kd,[1]; [9],~10000 nM
same,discrimination between ARVCF peptide and δ-catenin peptide,[2],almost equally
same,detection of target in Western blotting,[4],did not
VPRpTPV [Cdc25c-T48],Kd,Pin1 WW domain,8000 nM
STSpTPR [Myt1-T455],Kd,Pin1 WW domain,40000 nM
"ePDZ-b1: second-generation affinity-matured variant of ePDZ-b, SEQ ID NO: 151 (HYNYHYYS)",reduction in affinity on Ala substitution at position −4,[5],over 200 fold
same,Kd,[1]; [7],5 nM
same,koff,[1]; SPR,<3.7 × 10^−4 S^−1
same,kon,[1]; SPR,7.3 × 10^4 M^−1S^−1
same,Affinity Enhancement,[1],4960
same,Kd,[2]; [8],> 10000 nM
same,Specificity Index,[2],>2000
SPQPEpYVNQPDVR [ErbB2 pY1139],Kd,Grb2-SH2 domain,76 nM
LYRpSPS [Cdc25c-S214],Kd,Pin1 WW domain,72000 nM
VNATpYVNVKCVA [c-MET pY1356],Kd,Grb2-SH2 domain,200 to 1000 nM
PSpYVNVQN [SHC (control)],Kd,Grb2-SH2 domain,18 nM
YSPTpSPS [Polll-CTD-S5],Kd,Pin1 WW domain,34000 nM
"circularly permutated PDZ domain: erbin PDZ with original termini joined by Asn-Gly linker, new termini between residues 20 and 21 (protein) PELGFSISGGVGGRGNPFRPDDDGIFVTRVQPEGPASKLLQPGDKIIQANGYSFINIEHGQAVSLLKTFQNTVELIIVREVGNGAKQEIRVRVEKD",Kd,"[1]; SPR equilibrium mode, target peptide fused to yeast SUMO, read-out: dissociation constant (Kd), ARVCF peptide",11000 ± 700 nM
"ePDZ-b: affinity clamp: circularly permutated erbin PDZ fused to engineered FN3, SEQ ID NO: 150, selected for ARVCF peptide (protein) MKHHHHHHHHHHSSDYKDDDDKGENLYFQGSPELGFSISGGVGGRGNPFRPDDDGIFVTRVQPEGPASKLLQPGDKIIQANGYSFINIEHGQAVSLLKTFQNTVELIIVREVGNGAKQEIRVRVEKDGGSGGVSSVPTNLEVVAATPTSLLISWDAYYDSHVSYYRITYGETGGNSPVQEFTVPGSKSTATISGLKPGVDYTITVYAHYNYHYYSSPISINYRT",Kd,[1]; [9],56 nM
same,Kd,[1]; [7],56 nM
same,koff,[1]; SPR,1.1 × 10^−2 S^−1
same,kon,[1]; SPR,1.9 × 10^5 M^−1S^−1
same,Affinity Enhancement,[1],520
same,discrimination between ARVCF peptide and δ-catenin peptide,[2],~200 fold
same,Kd,[2]; [10],> 10000 nM
same,Kd,[2]; [8],> 10000 nM
same,Specificity Index,[2],>178
same,detection of target in Western blotting,[4],detected the target
same,IC50,ARVCF peptide,59 nM
"ePDZ-a: affinity clamp: circularly permutated erbin PDZ fused to engineered FN3, SEQ ID NO: 149, selected for ARVCF peptide (protein) MKHHHHHHHHHHSSDYKDDDDKGENLYFQGSPELGFSISGGVGGRGNPFRPDDDGIFVTRVQPEGPASKLLQPGDKIIQANGYSFINIEHGQAVSLLKTFQNTVELIIVREVGNGAKQEIRVRVEKDGGSGGVSSVPTNLEVVAATPTSLLISWDASYYGVSYYRITYGETGGNSPVQEFTVPYSSSTATISGLKPGVDYTITVYAYSDYYGSHHYSPISINYRT",sensitivity to Ala substitutions of the ARVCF peptide,[6],much less sensitive to the Ala substitutions
same,Kd,[1]; [9],56 nM
same,Kd,[1]; [7],56 ± 6 nM
same,koff,[1]; SPR,1.5 × 10^−2 S^−1
same,kon,[1]; SPR,2.9 × 10^5 M^−1S^−1
same,Affinity Enhancement,[1],520
same,Kd,[2]; [10],430 nM
same,Kd,[2]; [8],429 nM
same,Specificity Index,[2],8
same,detection of target in Western blotting,[4],detected the target
same,IC50,ARVCF peptide,40 nM

# — patent US9885050B2, “Molecular affinity clamp technology and uses thereof” (The University of Chicago, priority 2007, dated 2018)
